Assay results from the DeepSol protein solubility set.

assay: soluble on expression in E. coli; label from the status in PepcDB or PDB records

Row | Sequence | soluble on expression in E. coli
1 | SAAQKINEGLEHLAKAEKYLKTGFLKWKPDYDSAASEYGKAAVAFKNAKQFEQAKDACLREAVAHENNRALFHAAKAYEQAGMMLKEMQKLPEAVQLIEKASMMYLENGTPDTAAMALERAGKLIENVDPEKAVQLYQQTANVFENDERLRQAVELLGKASRLLVRGRRFDEAALSIQKEKNIYKEIENYPTCYKKTIAQVLVHLHRNDYVAAERCVRESYSIPGFNGSEDCAALEQLLEGYDQQDQDQVSDVCNSPLFKYMDNDYAKLGLSLVVPGGGIKKKSPATPQAKPDGVTATAADEEEDEYSGGLC | soluble
2 | MEGFVLAGTSSGVGKTVATLATLTALEDAGYQPQPAKAGPDFIDPSHHEALVDTPSRTLDPWLAGEDGMRRTYWRGTGDICVVEGVMGLYDGTKTSTAAVAEGLDLPVVLVVDAKAGMESVAATALGFAQYADRIGVDIEVAGILAQRAHGGRHADGIRDALPEDLTYFGRIPPMSDLEIPDRHLGLHMGSEAGLDRDALSTAAETIDIERLVETARAPPEVATTERNTGDSPADRRVAVAQDSAFCFIYPSVLERLRSEASVEPFSPVAGDSVPDADAIYLPGGYPELHGESLETGGTLDEIAVRAADGVPVYGECGGLMALSESLTTTDGDTYEMAGVLPADIEMQDRYQALDHVELEARADTVAATSGAHRRGHEFHYSAATLGSDASFAFDMVRGDGIDGEHDGLTEYSTIGTYCHCHGESGAFDRLLAVPSKDILEHHHHHH | not soluble
3 | MTENALLLLNLGSPDSTRVEDVRRYLDQFLMDPYVVDLPWPLRRLLVSLILIKRPAESAHAYSSIWWDEGSPLIVLSRRLQEAMKPHWPHGPVELAMRYGQPAIEKVLLDLARRGIRRVTLAPLYPQFADSTTTTAEQEVRRVIAAHRLGLEVSTLPPFYDQPVYLDALVESVRPYLQQPHDHLLLSFHGLPERHIRKLVKDPAHDLLAENSRNVSPEALALCYRSQCLRTAEAFAERAGLEQGRWSVSFQSRLGRAKWIEPYTDAKLDELVQRGVKRLLVMCPAFVADCIETLEEIGMRGREQFISAGGEDLVLIPCLNDHPAWVGALAEMSGRLARPL | not soluble
4 | MGSDKIHHHHHHMAVINPFVVGGYVSPRYFCDRVAETENLIRNLINGRNVALVSTRRMGKTGLIRHCFYQPLIKEGYYTFFIDIYATSSLKEFVFALGKGIFEKLKPQGNKFIDRFFSIITSLRIGFKLDSITGEPILELGLGDIHAPETTLEEIFIYLEQADKPCIVAIDEFQQISSYPEKNLEAILRTKVQHCSNSNFVFAGSQRHIMMNIFNSPSRPFYQSVSMMHLGAIPLEVYKPFVKGLFEENGKKVTDQLVENVYTLFDGHTWYVQLILNELFILTDKKGICDVPMINLALNNIIATQDFTFQEIFSRLPEKQKEIMIAIAKEQKAKGVTSAAFIKKYRLTSASSVQSGLKGLLEKDMLTQESGGYQVYDRLFNIWLRRNY | not soluble
5 | MVVVCASHIQPAIICRFTWLRFLMEIILIRHGKPTSANNPVLNAVDFTKWVRRYNFSDVSTNSRPDSILDEYKSHYIVSSDLERAIHSASIYTGQSPELTSKLYREMEIPRYKFPLRFKAMTWVYINRAFWMLGLKGSFESYRQAKIRAELASDHLVELAREQDKVILFGHGYLNLHIRRSLIKKGWKLNSKSNGFWGISSLEGLEHHHHHH | not soluble
6 | MNIVLMGLPGAGKGTQAEQIIEKYEIPHISTGDMFRAAIKNGTELGLKAKSFMDQGNLVPDEVTIGIVHERLSKDDCQKGFLLDGFPRTVAQADALDSLLTDLGKKLDYVLNIKVEQEELMKRLTGRWICKTCGATYHTIFNPPAVEGICDKDGGELYQRIDDKPETVKNRLDVNMKQTQPLLDFYSQKGVLKDIDGQQDIKKVFVDINDLLGGLR | soluble
7 | MSLDLSVDRSSPVPLYFQLSQQLEAAIEHGALTPGSLLGNEIELAARLGLSRPTVRQAIQSLVDKGLLVRRRGVGTQVVHSKVRRPLELSSLYDDLEAAGQRPATKVLVNTVVPATAEIAAALGVAEDSEVHRIERLRLTHGEPMAYLCNYLPPGLVDLDTGQLEATGLYRLMRAAGITLHSARQSIGARAATSGEAERLGEDAGAPLLTMERTTFDDTGRAVEFGTHTYRPSRYSFEFQLLVRP | soluble
8 | MSILKNAGEPVISMRYIPYNGGAVKETWWDRDSDRKRLLISLGTVKPMVDGLELISWVMDSANEVDADIILQLAINARTGLRKLPSNVRLVDWIPMGVFLNGADGFIHHGGAGNTLTALYSGIPQIVFGEGADRSVNAEIVAKRGCGIIPDKHGLTSDLVNRLLYDDSLRFCSDQVAAEMAEQPSPAEIAEVLMRKLKNNGKQL | not soluble
9 | MDSSNPSSLPLEKSSGNVQKGKLLNIWSRCIAQPSSFLGSSISRFWANADIKNRVCSAAIGRVNFVSKCLKKFPEVSLSCNISASLSLNTGKEKVKNEDLEKQERCHKVAMIEYEIQNLERQLKKRQF | not soluble
10 | MSLCEKEINNNNNNNELTEKSKEEIEKDEIEYLEYLKYRKEIIDSHCHIHEDVEHLQESCDLPFKKILLMGTTVEDWDKINQLADKINDDNKIIRCFGIHPWFVYNYLPPTELIGKIKEGDGSNDSIIISIDETWRIKMKELLLKYPNSIVGEIGIDKVTKVRLNGFNKNDQESQMRVFRDQIEIANELDRLVSLHCVQLQGQLLTFFQSLDIDKFPPAIALHTFGGKPATVDQFCKMASGKGDKFYFGLSFINLTFSKVDKLIQAIPDDRLLLESDQNSPTQVDQSLFKLIQKISISKNWTIQKTIEQTTLNTLNFLSKQIKKEGHHHHHH | soluble
11 | MQNAGSLVVLGSINADHILNLQSFPTPGETVTGNHYQVAFGGKGANQAVAAGRSGANIAFIACTGDDSIGESVRQQLATDNIDITPVSVIKGESTGVALIFVNGEGENVIGIHAGANAALSPALVEAQRERIANASALLMQLESPLESVMAAAKIAHQNKTIVALNPAPARELPDELLALVDIITPNETEAEKLTGIRVENDEDAAKAAQVLHEKGIRTVLITLGSRGVWASVNGEGQRVPGFRVQAVDTIAAGDTFNGALITALLEEKPLPEAIRFAHAAAAIAVTRKGAQPSVPWREEIDAFLDRQR | soluble
12 | GMQTPALIIVTGHPATGKTTLSQALATGLRLPLLSKDAFKEVMFDGLGWSDREWSRRVGATAIMMLYHTAATILQSGQSLIMESNFRVDLDTERMQNLHTIAPFTPIQIRCVASGDVLVERILSRIAQGARHPGHCDDRSPADLELVRSRGDIPPLPLGGPLLTVDTTFPEQIDMNAIVQWVRQHLQSGTAFL | soluble
13 | MEGMDHGSHSMPMGASSDAPAQSRTPIPPVTDADRAAVYTSHSGHQVHDSAINSYFVADKLEWQDANDGSALAWDLSGWIGGDIDRLLLRSEGERTNGKTEEAEVQALWGHAVSSSWDVVAGARQDFKPGAPQTWAAFGLQGQAISDLDVEATAFIGDAGQTAARLEADYDLLLTNDLILQPTGELNFYGKNDPQRGNGSGLSTSEFGLRLRYEITPQFAPYVGVTWNRSYGKTADYAREDDEDVAQARLVVGLRLWFLEHHHHHH | not soluble
14 | MGSDKIHHHHHHMGKLVLAAKVSHVPSLMLSETSDSPLRQARAGAVAALRELGRRAKEREVTTFVVFDTHWLSNFGYHINANAQHRGSFTSHEAPHMIQDLRYDLPGDPALAQAIAAEAQSHGLKVLAHQVPTLGLEYGTIVPMHYLNSDGWAKIVSIASPLFTSIEESRALGEATRRAIDASDERVAILASGSLSHRLWPNKDLGPDAWTTIASEFNRQVDLRVLQLWQERRYREFTAMLPDYAVKCNGEGGMADTVMLFAALGWDDYTGEAEPLCDYFPSSGSGQVNVEFHVS | not soluble
15 | MGSDKIHHHHHHMMGKAALMDAIAGTNRGLLATEAQKQAILAAIANLEDFNPTPRPVEAGNLLDGNWRLLYTTSKALLNLDRLPFCKLGQIYQCIRVETTSVYNIAEIYGLPYLEGLVSVAAKFEPVSGRRVQVKFERSIIGLQRLIEYNSPVTFIQQIEAGKKFAGIDFAIKSDKQQGWLDITYIDNDLRIGRGNEGSVFILSKT | not soluble
16 | GSMSAKDERAREILRGFKLNWMNLRDAETGKILWQGTEDLSVPGVEHEARVPKKILKCKAVSRELNFSSTEQMEKFRLEQKVYFKGQCLEEWFFEFGFVIPNSTNTWQSLIEAAPESQMMPASVLTGNVIIETKFFDDDLLVSTSRVRLFYV | soluble
17 | MGSDKIHHHHHHCDLERYPLTDLSEETFWNSESNAELALTSLYRGSLTDGVEYNPSDWWSYHGMIMMEHLSDNAFDRRGENNPFFKISSGNLTADNAFIKRYWETSYKRIGYCNRFLVGIQNSSESEKKTRMIAEARFLRATQYFYLASYFKNVPLVENVLTGEEANNVTKTSQADILKWCVTEFTAAAADLPRFSAIPAGEAGRACKQAALAFLGRTCMLQKDWKSGAKAFHDIMELGDNAINANYQELFYPSTGTSNKENIFYIQYLENYLGTGLPQHALSAKDGGWSLVNPAADLYESYEFKDGTPFSYDDPRYDPSNLGKDRDPRLDYTIYYNGAIFMGTEYKMSPDYSAAKKEKLDYTSEASRTGFMMRKYFEESTPINDVQSANGLTPVIRYAEVLLGYLECLVEDNQTITQGILDETINAVRGRASVNMPPVTEVTPAKLREIVRHERRIELAMEGIRYWDIMRWGIAHEVLSQKIWGAPYPGSTQYATTTKEVDPTGNYRWYVGKRAFRNPTDYTWPIPQSEQNINPNLRD | not soluble
18 | MGSDKIHHHHHHMFVWHEYENAAEAAQSLADAVADALQGALDEKGGAVLAVSGGRSPIAFFNALSQKDLDWKNVGITLADERIVPTNHADSNTGLVREYLLKNKAAAAVWIPMVEDGKTETELHPDAVVDYALKHYKQPDVLILGMGNDGHTASIFPKAPQFQTAIDGSAGVALVHTTPVTAPHERISMTLDAIAHTGHVFLAIQGEEKKAVFDQAAQGENREYPISLVLNHQGVNCHVFYAE | not soluble
19 | MGSDKIHHHHHHMLLQTKSNEMLLEKVMDEFSAATSLASVVVDIHGTEVSRLCNFTPFCQLIRSNPKYRSLCQKCDMFGGLEASKTGKPLIYRCHAGLTDFSVPIVVENQLSGFLLSGQVICEENSEVGNIQTEETDWKNDKDLISAFRSVPVFSSKKINSSAEMLTIISQYYLKSEMEKSREEQKQKIVFHHNKPTHHEDNKEIRKALKYIEKNLNRPITLDEVASHVYLSSYYFSKLFKKEMNVNFINYVNQKKMSLAKDMLKNPRWSIDNVARNLGFTQTSYFCKVFRKEFDVTPKGYRETLK | not soluble
20 | GPGSGDPYWAYSGAYGPEHWVTSSVSCGGSHQSPIDILDHHARVGDEYQELQLDGFDNESSNKTWMKNTGKTVAILLKDDYFVSGAGLPGRFKAEKVEFHWGHSNGSAGSEHSVNGRRFPVEMQIFFYNPDDFDSFQTAISENRIIGAMAIFFQVSPRDNSALDPIIHGLKGVVHHEKETFLDPFILRDLLPASLGSYYRYTGSLTTPPCSEIVEWIVFRRPVPISYHQLEAFYSIFTTEQQDHVKSVEYLRNNFRPQQALNDRVVSKS | soluble
21 | MVSSSSGLPSHRGPILSALYPGNGRGGYTASRGIHTSLLFRHRNAKLAWMIPRRLQPLLEARLEKVPVVVLTGPRQAGKTTLALEVAQRREALYLDLESEADRAKLSAPELYLEAHLGRLVILDEVHRMPGLFPLLRSLVDRARRRGLRNGLYLLLGSLAPEVSRQAGESLAGRASYLELSPFDLLEVGREAEPVLWLRGGFPESFLALEDEESFRWRMDFLRSYVEREIPLLGGRLPAEVLRRFLTMLAHLQGELLNASALARNLGLDGRTVNRYLDFLVDLYLLRRLPPLEANVGKRLVKSPKLYLRDSGLVHALLGIRTLEDLLAHPVVGRSYEGFVVENLLRVLPEGGEAYFYRTRAGAEVDLVLLLPGGRFWAVEVKRSLDPRPSRGFHEALKDLKPQEAFVIYPGGETFPVGEGVFAAPLGAVMERLWRG | soluble
